According to article PMC10504559:

How the values were obtained:
[1] = target: T1, RGA (Arabidopsis thaliana, UniProt Q9SLH3 1-587); test: EMSA
T1 sequence: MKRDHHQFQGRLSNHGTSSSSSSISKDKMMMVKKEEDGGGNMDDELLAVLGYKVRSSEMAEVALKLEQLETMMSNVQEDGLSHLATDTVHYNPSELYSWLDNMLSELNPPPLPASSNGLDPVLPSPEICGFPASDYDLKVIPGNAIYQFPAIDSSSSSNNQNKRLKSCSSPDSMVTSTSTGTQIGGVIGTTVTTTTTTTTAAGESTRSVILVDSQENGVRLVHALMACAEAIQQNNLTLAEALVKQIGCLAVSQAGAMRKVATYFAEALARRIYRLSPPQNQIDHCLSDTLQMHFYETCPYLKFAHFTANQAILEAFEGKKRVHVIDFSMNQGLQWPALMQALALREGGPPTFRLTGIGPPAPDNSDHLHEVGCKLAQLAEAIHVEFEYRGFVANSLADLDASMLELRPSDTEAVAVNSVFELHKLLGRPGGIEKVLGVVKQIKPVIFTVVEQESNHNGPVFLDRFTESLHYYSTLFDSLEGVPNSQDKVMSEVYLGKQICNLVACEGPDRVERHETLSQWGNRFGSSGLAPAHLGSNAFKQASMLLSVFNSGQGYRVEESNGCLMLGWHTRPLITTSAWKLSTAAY

[2] = target: T2, ABI4 (Arabidopsis thaliana, UniProt A0MES8 1-328); test: EMSA
T2 sequence (A0MES8 whole entry): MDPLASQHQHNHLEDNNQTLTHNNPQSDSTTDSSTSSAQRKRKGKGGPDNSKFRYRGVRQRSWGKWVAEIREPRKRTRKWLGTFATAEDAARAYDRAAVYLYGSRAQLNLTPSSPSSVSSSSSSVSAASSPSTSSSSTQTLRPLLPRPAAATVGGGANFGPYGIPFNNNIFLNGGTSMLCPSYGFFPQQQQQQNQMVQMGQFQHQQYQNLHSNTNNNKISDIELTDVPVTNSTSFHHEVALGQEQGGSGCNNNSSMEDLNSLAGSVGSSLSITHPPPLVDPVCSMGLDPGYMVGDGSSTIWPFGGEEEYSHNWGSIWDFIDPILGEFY

[3] = target: T2, ABI4; test: competition
[4] = target: T3, HY5 (Arabidopsis thaliana, UniProt O24646 1-168); test: EMSA
T3 sequence: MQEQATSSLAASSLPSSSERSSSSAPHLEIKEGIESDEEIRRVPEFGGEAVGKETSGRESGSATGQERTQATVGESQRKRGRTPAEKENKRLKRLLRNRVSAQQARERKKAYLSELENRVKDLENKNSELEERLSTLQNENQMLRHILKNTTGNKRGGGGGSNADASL

B1: EXP2 promoter probe (dsDNA)
DNA 1: GCGGATATGTAATACGTCCACGTGGCATAAAAGTA
DNA 2: TACTTTTATGCCACGTGGACGTATTACATATCCGC
- binding result [1]: no binding
- binding result [2]: binds

B2: GA2ox7 promoter CCAC mutant (m) (dsDNA)
DNA 1: AAACACCCGACCCAATCTAAAAATCTATACATAAGTATACCAATTTATTCTTCTTCTTCA
DNA 2: TGAAGAAGAAGAATAAATTGGTATACTTATGTATAGATTTTTAGATTGGGTCGGGTGTTT
- binding result [3]: no binding

B3: GA2ox7 promoter CCAC probe (dsDNA)
DNA 1: AAACACCCGACCCAATCTAAAAATCCCACCATAAGCCACCCAATTTATTCTTCTTCTTCA
DNA 2: TGAAGAAGAAGAATAAATTGGGTGGCTTATGGTGGGATTTTTAGATTGGGTCGGGTGTTT
- binding result [2]: binds

B4: GA2ox7 promoter G-box probe (dsDNA)
DNA 1: TTAGGACACAAACACGTGGTTTTTCATAGCATTGAGAAATTATAATAAAT
DNA 2: ATTTATTATAATTTCTCAATGCTATGAAAAACCACGTGTTTGTGTCCTAA
- binding result [4]: binds
